One assay deals with A431-SARS-CoV-S. The experiment in a line: Flow cytometry on A431 cells expressing SARS-CoV spike, anti-FLAG-APC detection.
Assay [1] concerns the target T1, SARS-CoV-2 spike protein on pseudovirus (SARS-CoV-2, UniProt P0DTC2 14-1273). Nature of the assay: cell-based or functional assay.
The target in assay [2] is T2, BSA (bovine, UniProt P02769).
T2 construct: also called bovine serum albumin
The experiment in a line: Protein ELISA, antigen coated, HRP-anti-Flag detection, absorbance 450 nm.

In assay [3] the target is T1, SARS-CoV-2 spike protein on pseudovirus. The experiment in a line: cell-based or functional assay. The source holds these as a separate data set.
Assay [4] has as its target T2, BSA. The experiment in a line: Protein ELISA, antigen coated, HRP-anti-Flag detection, absorbance 450 nm. This is another data set of the same source. (In general: In an ELISA, binding on a coated surface is turned into a signal by an enzyme label.)
Assay [5] has as its target SARS-CoV-1 spike protein on pseudovirus (SARS-CoV-1, UniProt P59594 14-1255). The experiment in a line: cell-based or functional assay.
Assay [6] addresses T1, SARS-CoV-2 spike protein on pseudovirus. Nature of the assay: cell-based or functional assay. This is another data set of the same source.
Assay [7] deals with T2, BSA. The experiment in a line: Protein ELISA, antigen coated, HRP-anti-Flag detection, OD450.

T2 sequence (P02769 25-607 limits assumed): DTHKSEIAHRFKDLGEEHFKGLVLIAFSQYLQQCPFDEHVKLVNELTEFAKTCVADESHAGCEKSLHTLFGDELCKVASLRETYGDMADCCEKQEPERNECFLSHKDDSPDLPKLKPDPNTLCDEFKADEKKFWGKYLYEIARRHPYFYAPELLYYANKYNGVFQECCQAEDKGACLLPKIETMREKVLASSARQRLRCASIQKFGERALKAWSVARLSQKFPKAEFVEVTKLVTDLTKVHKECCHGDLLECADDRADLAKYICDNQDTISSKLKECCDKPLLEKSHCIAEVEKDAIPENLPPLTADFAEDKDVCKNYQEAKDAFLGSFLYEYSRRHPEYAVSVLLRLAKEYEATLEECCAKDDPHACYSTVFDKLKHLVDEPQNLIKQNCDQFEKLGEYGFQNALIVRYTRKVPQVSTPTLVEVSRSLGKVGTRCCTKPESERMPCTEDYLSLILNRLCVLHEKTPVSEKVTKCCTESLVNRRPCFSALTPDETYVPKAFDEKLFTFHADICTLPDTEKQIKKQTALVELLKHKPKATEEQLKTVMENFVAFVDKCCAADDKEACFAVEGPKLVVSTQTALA

B1: NCI-CoV-S2G8 (VNAR)
VNAR: ARVDQTPQTITKETGESLTINCVLRDSNCPLSNTYWYRKKSGSTNEESISKGGRYVETVNSGSKSFSLRINDLTVEDSGTYRCKVRTHWSICWEMGLEPNYDVYGGGTVVTVN
Take B1: the binding result with A431-SARS-CoV-S is “binds”; with BSA [2], “no binding (tested: 10 µg/ml)”. In addition, the “Neutralizing Power, SARS-CoV-2 Pseudovirus Neutralization Assay” value (“Neutralizing Power” below) in assay [1] turned out to be 50%.

B2: NCI-CoV-S3A10 (VNAR)
VNAR: ARVDQTPRSVTKETGESLTINCVLRDASYALGSTCWYRKKSGSTNEESISKGGRYVETVNSGSKSFSLRINDLTVEDGGTYRCGRIQNTKAVLLPCVYAACGDGTVVTVN
For the molecule B2, in assay [1], the “Neutralizing Power” value came to 60%.

B3: NCI-CoV-S4A9 (VNAR)
VNAR: ARVDQTPRSVTKETGESLTINCVLRDASYALGSTCWYRKKSGSTNEESISKGGRYVETVNSGSKSFSLRINDLTVEDGGTYRCGVQSRWGAVPKLCSNYAACGDGTAVTVN
Take B3: in assay [1], the “Neutralizing Power” value stood at 30%.

B4: NCI-CoV-CG2D11 (VHH)
VHH: AVQLVDSGGGSVQAGGSLRLSCAGSAFTYSSYCMGWFRQAPGKEREAVAAINSGTSSTYYADSVKGRFTVSQDNANNTVYLLMISLKPEDTAIYICAALVAPDYDDYDVAAPDNFDYWGQGTQVTVSS
On to B4, for which the “Neutralizing Power” value in assay [1] is 40%.

B5: NCI-CoV-CGF10 (VHH)
VHH: AVQLVESGGGLVQPGGSLRLSCAASGFTFSSYGMHWVRQAPGKGLERVAGINWDGSNSYYTETVKGRFTISRDNAKNTAYLQMNSLKPEDTAMYYCRTLILDSDCDPGSTYRYAWGQGTQVTVSS
On to B5, for which, in the assay with A431-SARS-CoV-S, the binding result was “no binding”. Moreover, the “Neutralizing Power” value in assay [1] is 20%.

B6: NCI-CoV-S2A9 (VNAR)
VNAR: ARVDQTPRSVTKETGESLTINCVLRDASYALGRTCWYRKKSGSTNEESISKGGRYVETVNSGSKSFSLRINDLTVEDGGTYRCGVSTPWSCDYGPLCFYAACGDGTVVTVN
Turning to B6, in assay [3], the “IC50, neutralization of the original strain of SARS-CoV-2 pseudovirus” value was 1.39 µM and the “IC50, pseudovirus neutralization (luciferase, 293-hACE2 cells)” value was 1.29 µM. For the same molecule, the binding result with BSA [4] is “no binding (tested: 10 µg/ml)”. Moreover, the “IC50 for neutralizing pseudovirus” value in assay [5] worked out at 49.3 µM. In addition, the “IC50 for neutralizing pseudovirus” value in assay [6] came to 4.34 µM. For the same molecule, the “Neutralizing Power” value in assay [1] worked out at 90%.

B7: NCI-CoV-CLA2 (VHH)
VHH: QVQLVESGGGSVQPGGSLRLSCAVSGYTSSSYCFGWFRQAPGKDREGIIAMEPGNTYTAGAVKGRFTISRDNAKNMVYLQMNSLKPDDTAMYYCAASPYPGTWLNPDLFDTWGQGTQVTVSS
Take B7: the “Neutralizing Power” value in assay [1] is 45%.

B8: NCI-CoV-CL3H4 (VHH)
VHH: DVQLVESGGGAVKPGGSLTLTCTVQEGSRNCVGWFRQGSGKDRQAVAMINGNGGTTNYDDRVKGRFQISRDGSLVHLRMNDVKLGDTDIYYCRQGQTYDCWGGTWTDSGWGQGTQVTVSS
Consider B8, for which the “Neutralizing Power” value in assay [1] is 30%.

B9: NCI-CoV-CGH3 (VHH)
VHH: AVQLVESGGGLVQPGGSLRLSCAASGFTFSSYAMGWVRQAPGKGLEWISAINSGGDIRYYADSVKGRFTISRDNAKNTLYLQMNSLKPEDTAVYYCATDDEILSYGLGTSFDYWGQGTQVTVSS
Consider B9, for which the binding result with A431-SARS-CoV-S is recorded as “no binding”. Besides, in assay [1], the “Neutralizing Power” value stood at 30%.

B10: NCI-CoV-CG2G2 (VHH)
VHH: AVQLVESGGGSVPPGGSLTLSCTVSDNIFRTYAVGWFRQAPEKRCQWIATLNADESTEYNVAVTGRFTISRDNSGRSVYLQMDNLNSEDTAIYYCASLARKWSCHDSWGRGTQVTVSS
With B10, the binding result with BSA [7] is “no binding (tested: 10 µg/ml)”. Also, the “Neutralizing Power” value in assay [1] came out at 50%.

For the origin of these results see patent US20240417446A1 (US Dept. of Health and Human Services, published 2024).
